{
  "source": "patent US20140120095A1",
  "about": "(Boehringer Ingelheim, published 2014)",
  "key": {"recombinant human DLL4 [1]": {"target": "T1, recombinant human DLL4 (human, UniProt Q9NR61 25-522)", "experiment": "cell-based or functional assay"}, "recombinant human DLL4 [2]": {"target": "T1, recombinant human DLL4", "experiment": "Biacore off-rate, periplasmic extract"}, "[3]": {"target": "T2, mouse DLL4 overexpressed on cells (mouse, UniProt Q9JI71 27-686)", "T2 construct": "whole, on cells; also called CHO-mDLL4; CHO-mDII4", "T2 sequence (Q9JI71 27-686)": "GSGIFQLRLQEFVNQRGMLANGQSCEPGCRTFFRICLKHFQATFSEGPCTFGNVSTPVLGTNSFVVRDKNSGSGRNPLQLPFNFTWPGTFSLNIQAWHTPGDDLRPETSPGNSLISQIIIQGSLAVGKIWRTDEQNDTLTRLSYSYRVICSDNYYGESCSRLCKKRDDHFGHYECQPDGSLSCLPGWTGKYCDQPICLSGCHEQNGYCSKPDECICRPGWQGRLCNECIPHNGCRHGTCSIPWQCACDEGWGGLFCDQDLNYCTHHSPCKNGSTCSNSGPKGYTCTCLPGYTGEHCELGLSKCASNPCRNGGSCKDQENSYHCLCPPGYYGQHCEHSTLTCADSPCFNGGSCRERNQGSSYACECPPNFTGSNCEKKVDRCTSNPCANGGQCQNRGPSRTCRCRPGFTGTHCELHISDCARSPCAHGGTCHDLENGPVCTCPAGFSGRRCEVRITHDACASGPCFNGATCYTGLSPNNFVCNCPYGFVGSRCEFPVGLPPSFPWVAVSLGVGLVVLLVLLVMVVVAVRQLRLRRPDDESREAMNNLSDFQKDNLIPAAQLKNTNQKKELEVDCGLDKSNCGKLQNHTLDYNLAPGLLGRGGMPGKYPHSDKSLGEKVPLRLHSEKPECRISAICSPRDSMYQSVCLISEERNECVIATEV", "experiment": "FACS titration on HEK293-mDLL4 cells, MCF", "protocol": "In order to determine the cynomologus cross-reactivity of the VHHs, a FACS binding experiment is performed. Cynomolgus DII4 expressing HEK293 cells (transient or stable transfection) are used for a titration binding experiment of the VHHs. After a 30 minutes incubation on ice, all samples are washed and detection is performed by applying anti-c-myc˜Alexa647 (Santa Cruz Biotechnology, Santa Cruz, Calif., USA). Human and mouse DII4 overexpressing HEK293 cells are taken as reference. The mean MCF value is determined on the FACS Array and used for calculation of the EC₅₀ value (see FIG. 9 A-E)."}, "[4]": {"target": "T3, human DLL4 overexpressed on cells (human, UniProt Q9NR61 27-685)", "T3 construct": "full length human DLL4 on CHO or HEK293 cells; also called CHO-hDLL4; CHO-hDII4", "experiment": "FMAT, labelled hNotch1-Fc on CHO-hDLL4, periplasmic extract", "description": "(§1) All calculations are based on the FL1_total signal which comprises the average of the fluorescence per well times the number of counts per well."}, "[5]": {"target": "T2, mouse DLL4 overexpressed on cells", "experiment": "FMAT, labelled hNotch1-Fc on CHO-mDLL4, periplasmic extract", "description": "as §1"}, "[6]": {"target": "T4, human DLL4 expressed on cells (CHO-hDLL4; HEK293-hDLL4) (human, UniProt Q9NR61 27-685)", "experiment": "cell-based or functional assay"}, "[7]": {"target": "T5, recombinant human DLL4 (C-terminally His-tagged extracellular domain, R&D Systems) (human, UniProt Q9NR61 25-522, biotinylated in the competition ELISA)", "experiment": "cell-based or functional assay"}, "[8]": {"target": "T5, recombinant human DLL4 (C-terminally …)", "experiment": "SPR (Biacore), recombinant human DLL4"}, "[9]": {"target": "T4, human DLL4 expressed on cells …", "experiment": "competition FMAT, labelled hNotch1-Fc on CHO-hDLL4 cells"}, "[10]": {"target": "T6, mouse DLL4 expressed on CHO cells (mouse, UniProt Q9JI71 27-686)", "T6 construct": "whole, on cells; also called mDLL4; CHO-mDLL4", "T6 sequence (Q9JI71 27-686)": "as above", "experiment": "competition FMAT, labelled hNotch1-Fc on CHO-mDLL4 cells"}, "[11]": {"target": "T7, recombinant mouse DLL4 (C-terminally His-tagged extracellular domain, R&D Systems) (mouse, UniProt Q9JI71 27-532)", "T7 construct": "extracellular domain; also called rmDLL4; mDLL4", "T7 sequence (Q9JI71 27-532)": "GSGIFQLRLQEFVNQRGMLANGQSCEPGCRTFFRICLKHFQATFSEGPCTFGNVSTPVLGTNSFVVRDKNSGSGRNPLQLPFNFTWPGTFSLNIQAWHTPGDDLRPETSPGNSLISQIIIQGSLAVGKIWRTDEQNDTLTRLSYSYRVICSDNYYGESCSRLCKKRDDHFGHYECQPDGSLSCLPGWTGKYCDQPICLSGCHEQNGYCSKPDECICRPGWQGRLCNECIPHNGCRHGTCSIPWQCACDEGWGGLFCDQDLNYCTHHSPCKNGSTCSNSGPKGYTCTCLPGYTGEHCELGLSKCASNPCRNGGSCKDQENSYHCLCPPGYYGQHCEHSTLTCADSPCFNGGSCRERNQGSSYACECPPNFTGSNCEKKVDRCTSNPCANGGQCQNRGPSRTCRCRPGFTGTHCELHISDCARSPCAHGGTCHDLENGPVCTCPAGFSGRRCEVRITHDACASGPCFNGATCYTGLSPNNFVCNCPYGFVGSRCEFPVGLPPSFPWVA", "experiment": "ProteOn off-rate screen, periplasmic extract, coated mouse DLL4", "protocol": "In a first cycle, amino acid substitutions are introduced randomly in both framework (FW) and complementary determining regions (CDR) using the error-prone PCR method. […] After a polish step, PCR products are inserted via unique restriction sites into a vector designed to facilitate phage display of the VHH library. Consecutive rounds of in-solution selections are performed using decreasing concentrations of biotinylated recombinant human DLL4 (biot-rhDLL4) and trypsin elutions. Affinity-driven selections in a third round using cold rhDLL4 (at least 100× excess over biot-rhDLL4) are also performed. No selections on murine DLL4 are included as (conservation of) cross-reactivity is assessed at the screening level. Individual mutants are produced as recombinant protein using an expression vector derived from pUC119, which contains the LacZ promoter, a resistance gene for ampicillin, a multiple cloning site and an ompA leader sequence (pAX50). E. coliTG1 cells are transformed with the expression vector library and plated on agar plates (LB+Amp+2% glucose). Single colonies are picked from the agar plates and grown in 1 mL 96-deep-well plates. VHH expression is induced by adding IPTG (1 mM). Periplasmic extracts (in a volume of ˜80 uL) are prepared according to standard methods and screened for binding to recombinant human and mouse DII4 in a ProteOn (BioRad, Hercules, Calif., USA) off-rate assay. In brief, a GLC ProteOn Sensor chip is coated with recombinant human DII4 on the “ligand channels” L2 and L4 (with L1/L3 as reference channel), while “ligand channels” […] is coated with mouse DII4. Periplasmic extract of affinity-matured clones is diluted 1/10 and injected across the “analyte channels” A1-A6. An average off-rate is calculated of the wild type clones present in the plate and served as a reference to calculate off-rate improvements."}},
  "data": [
    {"binder": "DLLBII115A05 (VHH, also called 115A5; DLLBII115A5) VHH: EVQLVESGGGLVQPGGSLRLSCAASGFTFGSYDMSWVRRSPGKGPEWVSSINSGGGSTYYADFVKGRFTISRDNAKNTLYLQMNSLKPEDTAVYYCAADRYIRARQGDYWGAYEYDYWGQGTQVTVSS", "values": [
      {"measurement": "IC50 (nM) (experiment 1), DLL4 proliferation assay (HUVEC)", "setting": "recombinant human DLL4 [1]", "result": 10000, "unit": "nM"},
      {"measurement": "koff", "setting": "recombinant human DLL4 [2]", "result": 0.0031, "unit": "s⁻¹"},
      {"measurement": "EC50 (read off the curve)", "setting": "[3]", "result": "~30", "unit": "nM"},
      {"measurement": "% inh", "setting": "[4]", "result": 74, "unit": "%"},
      {"measurement": "% inh", "setting": "[5]", "result": 84, "unit": "%"}
    ]},
    {"binder": "DLLBII136C07 (VHH, not shown: small tags and cut ends) VHH: EVQLVESGGGLVQPGGSLRLSCAASGFTFGSYDMSWVRRSPGKGPEWVSSINSGGGSTYYADYVKGRFTISRDNAKNTLYLQMNSLKPEDTAVYYCAADRYIWARQGEYWGAYEYDYWGQGTQVTVSS", "values": [
      {"measurement": "IC50, DLL4-mediated reporter assay (hDLL4)", "setting": "[6]", "result": 112, "unit": "nM"},
      {"measurement": "IC50, DLL4-mediated HUVEC proliferation assay", "setting": "[7]", "result": 14.5, "unit": "nM"},
      {"measurement": "Inhibition (%), DLL4-mediated HUVEC proliferation assay", "setting": "[7]", "result": 100, "unit": "%"},
      {"measurement": "Kd", "setting": "[8]", "result": 1, "unit": "nM"},
      {"measurement": "koff", "setting": "[8]", "result": 0.00052, "unit": "s⁻¹"},
      {"measurement": "kon", "setting": "[8]", "result": 550000, "unit": "M⁻¹ s⁻¹"},
      {"measurement": "IC50", "setting": "[9]", "result": 11.4, "unit": "nM"},
      {"measurement": "IC50", "setting": "[10]", "result": 50.8, "unit": "nM"}
    ]},
    {"binder": "DLLBII56A09 (VHH, also called 56A9; DLLBII56A9) VHH: EVQLVESGGGLVQPGGSLRLSCAASGFTFDDYAIGWFRQAPGKEPEGISCISSSGGITYYADSVKGRFTTSRDNAKNTVYLQMNSLKPEDTAVYYCATPGIAACRGIHYTGQGTQVTVSS", "values": [
      {"measurement": "IC50 (nM) (experiment 1), DLL4 proliferation assay (HUVEC)", "setting": "recombinant human DLL4 [1]", "result": 11, "unit": "nM"},
      {"measurement": "IC50 (nM) (experiment 2), DLL4 proliferation assay (HUVEC)", "setting": "recombinant human DLL4 [1]", "result": 6.8, "unit": "nM"},
      {"measurement": "koff", "setting": "recombinant human DLL4 [2]", "result": 0.0011, "unit": "s⁻¹"}
    ]},
    {"binder": "DLLBII101G08 (VHH, also called 101G8; DLLBII101G8) VHH: EVQLVESGGGLVQAGGSLRLSCAASGRTFSSYAMAWFRQAPGKEREFVAAIRWSGGTAYYADSVQGRFTISRDNAKNTVYLQMNSLKPEDTAVYYCANRAADTRLGPYEYDYWGQGTQVTVSS", "values": [
      {"measurement": "IC50 (nM) (experiment 1), DLL4 proliferation assay (HUVEC)", "setting": "recombinant human DLL4 [1]", "result": 401, "unit": "nM"},
      {"measurement": "IC50 (nM) (experiment 2), DLL4 proliferation assay (HUVEC)", "setting": "recombinant human DLL4 [1]", "result": 112, "unit": "nM"},
      {"measurement": "koff", "setting": "recombinant human DLL4 [2]", "result": 0.0021, "unit": "s⁻¹"},
      {"measurement": "EC50 (read off the curve)", "setting": "[3]", "result": "~40", "unit": "nM"},
      {"measurement": "% inh", "setting": "[4]", "result": 91, "unit": "%"},
      {"measurement": "% inh", "setting": "[5]", "result": 92, "unit": "%"}
    ]},
    {"binder": "DLLBII101G08 (VHH, not shown: small tags and cut ends, parent VHH; also called 101G08 (wt); 101G8) VHH: EVQLVESGGGLVQAGGSLRLSCAASGRTFSSYAMAWFRQAPGKEREFVAAIRWSGGTAYYADSVQGRFTISRDNAKNTVYLQMNSLKPEDTAVYYCANRAADTRLGPYEYDYWGQGTQVTVSS", "values": [
      {"measurement": "fold (off-rate vs DLLBII101G08)", "setting": "[11]", "result": 1, "unit": "fold"},
      {"measurement": "koff", "setting": "[11]", "result": 0.0067, "unit": "s⁻¹"}
    ]},
    {"binder": "DLLBII129B05 (VHH, not shown: small tags and cut ends) VHH: EVQLVESGGGLVQAGGSLRLSCAASGRTFSSYAMAWYRQAPGKEREYVAAIRWSGGTAYYADSVQGRFTISRDNAKNTVYLQMNSLKPEDTAVYYCANRAPDTRLAPYEYDHWGQGTQVTVSS", "values": [
      {"measurement": "IC50, DLL4-mediated reporter assay (hDLL4)", "setting": "[6]", "result": 108, "unit": "nM"},
      {"measurement": "IC50, DLL4-mediated HUVEC proliferation assay", "setting": "[7]", "result": 3.7, "unit": "nM"},
      {"measurement": "Inhibition (%), DLL4-mediated HUVEC proliferation assay", "setting": "[7]", "result": 100, "unit": "%"},
      {"measurement": "Kd", "setting": "[8]", "result": 0.2, "unit": "nM"},
      {"measurement": "koff", "setting": "[8]", "result": "7.9e-05", "unit": "s⁻¹"},
      {"measurement": "kon", "setting": "[8]", "result": 340000, "unit": "M⁻¹ s⁻¹"},
      {"measurement": "IC50", "setting": "[9]", "result": 8.2, "unit": "nM"},
      {"measurement": "IC50", "setting": "[10]", "result": 15.9, "unit": "nM"},
      {"measurement": "fold (off-rate vs DLLBII101G08)", "setting": "[11]", "result": 20, "unit": "fold"},
      {"measurement": "koff", "setting": "[11]", "result": 0.00034, "unit": "s⁻¹"}
    ]},
    {"binder": "DLLBII129E11 (VHH, not shown: small tags and cut ends) VHH: EVQLVESGGGLVQAGGSLRLSCAASGRTFSSYAMAWYRQAPGKEREYVAAIRWSGGTAYYADSVQGRFTISRDNAKNTVYLQMNSLKPEDTAVYYCANRAPDTRLRPYLYDYWGQGTQVTVSS", "values": [
      {"measurement": "fold (off-rate vs DLLBII101G08)", "setting": "[11]", "result": 26, "unit": "fold"},
      {"measurement": "koff", "setting": "[11]", "result": 0.00025, "unit": "s⁻¹"}
    ]},
    {"binder": "DLLBII129D08 (VHH, not shown: small tags and cut ends) VHH: EVQLVESGGGLVQAGGSLRLSCAASGRTFSSYAMAWYRQAPGKEREYVAAIRWSGGTAYYADSVQGRFTISRDNAKNTVYLQMNSLKPEDTAVYYCANRAPDTRLEPYLYDYWGQGTQVTVSS", "values": [
      {"measurement": "fold (off-rate vs DLLBII101G08)", "setting": "[11]", "result": 35, "unit": "fold"},
      {"measurement": "koff", "setting": "[11]", "result": 0.00019, "unit": "s⁻¹"}
    ]}
  ]
}
